The values that follow come from patent US9605038B2, “Fusion peptide comprising dhFas-1 domain and MMP substrate and use thereof for preventing and treating rheumatoid arthritis” (Kyungpook National University Industry-Academic Cooperation …, priority 2010, dated 2017).

For series [1], the system named is human fibroblast-like synovicyte (FLS). In words: βig-h3-mediated cell adhesion test, FLS. Type of series: cell-based. As for the experimental part: (§1) βig-h3 was introduced into a 96-well plate at a concentration of 5 ug/ml, and coated for 14 hours at 4° C. In DMEM+0.5% BSA (Bovine Serum Albumin) culture medium, human fibroblast-like synovicyte (FLS) was introduced, and HsFJ24, HsFJ25 or HsFJ27 at concentrations was injected thereto, followed by mixing. The resultant mixture was cultured at 37° C. for 30 minutes, and plated on a coated well. It was cultured for 2 hours, and washed with PBS (phosphate buffered saline) so as to remove unattached cells, and then added with a substrate (4-Nitrophenyl N-acetyl-β-D-glucosaminide, Sigma, U.S.) to be activated by β-N-acetylglucosaminidase within the cell, followed by culturing at 37° C. for 1 hour. Then, a glycine EDTA solution (0.5M EDTA, 50 mM glycine, pH 10.4) was added thereto, and the coloring extent according to the number of attached cells was measured by absorbance.

The subject of a further series is ICAM-1 and RANKL. In words: Immunoblot of ICAM-1 and RANKL in CIA mouse model. The conditions noted are these: 30 mg/kg, FIG. 27. Type of series: in vivo. Background: In western blotting, separated proteins are transferred to a membrane and probed.
In series [2] the test system is foot tissue of CIA mouse (Synovial membrane, cartilage, bones; CD31, ICAM-1). In words: Histologic and immunohistochemistry test on foot tissue of CIA mouse. The class given is in vivo. The conditions noted are these: CIA mouse, 50th day. Here is the method: In order to determine the action mechanism of an arthritis therapeutic effect in a CIA model, on the 50th day following the second injection of the bovine type 2 collagen (after 4 weeks from the onset (the 23rd day) of arthritis following the second injection of the bovine type 2 collagen), foot tissues of treatment groups were separated and subjected to histologic analysis. Then, in the tissues, a change in the expression of inflammatory mediators was examined.
A tissue sample was prepared by the following process. Skin on the foot tissue was removed. Then, the tissue was fixed in 10% formalin solution for 2 days, and demineralized in 10% EDTA solution. The demineralized tissue was subjected to a dehydrating process and a clearing process, paraffin-embedded, and was made into a fragment with a thickness of 3 um by a microtome. The tissue fragment was deparaffinized and re-dehydrated by 100% xylene and ethanol, and then non-specific peroxidase within the tissue was blocked by a solution of 0.3% hydrogen peroxide dissolved in 100% methanol.
In order to carry out an immunohistochemistry test, binding of non-specific protein was blocked by 5% BSA. Then, the tissue was cultured, together with each primary antibody (as endothelial cell markers, an antibody to CD31, and an antibody to ICAM-1 (intercellular adhesion molecule-1)), at 4° C. for 12 to 14 hours, and washed with washing buffer (0.1% BSA, 0.2% gelatin, 0.05% saponin). It was cultured together with a secondary antibody labeled with biotin at room temperature for 30 minutes, was washed, reacted with Vectastatin ABC kit (Vector Laboratories, U.S.), and was mounted with Eukitt mounting media (Fluka, Germany) for observation.

Series [3] concerns collagen-induced arthritis (CIA) mouse model. In words: Arthritis therapeutic effect in CIA mouse (clinical arthritis index). Type of series: in vivo. As for the experimental part: A CIA mouse model having the similar characteristic to that of human rheumatoid arthritis was prepared according to the description in a known literature (Protocol for the successful induction of collagen-induced arthritis (CIA) and collagen antibody-induced arthritis (CAIA) in mice. Chondrex, Redmond, Wash.): Bovine type 2 collagen 100 ug was mixed with Freund's complete adjuvant, and hypodermically inoculated into the tail of the mouse. After 3 weeks, bovine type 2 collagen 100 ug was mixed with Freund's incomplete adjuvant, and inoculated again into the tail of the mouse. Then, the mouse was used in the experiment.
In order to find out the therapeutic effect of arthritis in a CIA model, for four weeks from the onset (the 23rd day) of arthritis following the second injection of the bovine type 2 collagen, MFK23 or MFK24 was daily injected into the abdominal cavity in doses of 0.1 mg/kg, 1 mg/kg, 10 mg/kg and 30 mg/kg. As a control group, the same amount of PBS was injected into the abdominal cavity. From the 23rd day to the 50th day, by using a Clinical arthritis index, the severity of arthritis was daily determined. The determination was based on the following data.
0; no symptom, 1; edema in one articulation or light edema, 2; severe edema in 2 or more articulations, 3; severe edema in most articulations, 4; severe edema in the whole of legs.

Series [4] concerns mouse fibroblast (NIH3T3). In words: βig-h3-mediated cell adhesion test, NIH3T3. Type of series: cell-based. The conditions noted are these: NIH3T3, βig-h3 5 ug/ml coat. Here is the method:
as §1, with “Human βig-h3” for “βig-h3”, “fibroblast (NIH3T3)” for “fibroblast-like synovicyte (FLS)”, “hsdhFas-1 peptide” for “HsFJ24, HsFJ25 or HsFJ27”
Also, a structurally modified peptide of a fas-1 domain of mouse βig-h3 was synthesized as a recombinant peptide (hereinafter, referred to as ‘mdhFas-1peptide’, see FIG. 2), and a mouse cell line, that is, NIH3T3 cell line, was used to test the inhibiting effect by mdhFas-1 peptide on adhesion and migration of a Synovial membrane cell in the same manner as that in the test using human βig-h3.
as §1, with “mouse fibroblast (NIH3T3)” for “human fibroblast-like synovicyte (FLS)”, “MFK23, MFK24, MFK25” for “HsFJ24, HsFJ25”, “MFK27” for “HsFJ27”

Series [5] can be described thus: Toxicity test in CIA mouse (weight, serologic test, blood test). The conditions noted are these: CIA mouse, 22nd day vs 48th day.
Method: On the 48th day, a serologic test and a blood test were carried out.
The subject of series [6] is TNF-a, RANKL, IL-1β, CCL-2, MMP-1, MMP-3, IL-6, VCAM-1. In words: Semiquantitative reverse transcription PCR of inflammatory mediators in CIA mouse foot tissue. The class given is in vivo. The conditions noted are these: CIA mouse, 30 mg/kg, FIG. 26. As for the experimental part:
The distribution of inflammation in the foot tissue may be somewhat differently observed according to the regions, and its quantitative research is difficult. Thus, in the hind leg of a mouse CIA model treated with MFK24, the change in inflammatory mediators according to the onset of arthritis was measured by a semiquantitative reverse transcription PCR method using a Taqman probe, as described below.
From a mouse CIA model, a foot tissue was separated, and its skin was removed. The remaining tissue was grinded by a tissue homogenizer, and an extraction reagent (Easy-spim™, Intron) was used to extract all RNAs. They were quantified, and for 7 μg of RNA, a reverse transcriptase reaction was carried out by using AMV reverse transcriptase (Roche, 0.5 ul), oligo dT (Roche, 1 ul), and 10 mM dNTP (Takara, 2 ul) RNase inhibitor (Roche, 0.1 ul). For TNF-a, RANKL, IL-1β, CCL-2, MMP-1, MMP-3, IL-6, VCAM-1 and 18S RNA of a mouse, semiquantitative PCR was performed by using primers (Bioneer, Daejeon) and a Taqman probe (Roche, Germany) in LC480 (Roche, Germany), so as to determine the number of transcripts. Quantitative analysis of the transcripts was performed through comparison with 18S RNA transcripts. The primer pairs for the semiquantitative PCR are noted in [table8].

The next series has as its system NIH3T3. In words: βig-h3-mediated cell migration test (transwell), NIH3T3. The class given is cell-based, mouse. The conditions noted are these: 7 hours. As for the experimental part: In the lower compartment of a transwell filter having an 8 um hole size allowing cells to be migrated, βig-h3 was cultured at 4° C. for 12 to 14 hours and coated. In DMEM+0.5% BSA culture medium, NIH3T3 was introduced, and administered with MFK23, MFK24 or MFK25 at concentrations, followed by mixing. The resultant mixture was cultured at 37° C. for 30 minutes, inoculated into the upper chamber of the coated well, and cultured for 7 hours at 37° C. Then, the cells migrated to the lower compartment of the filter were fixed by paraformaldehyde, and strained by a crystal violet. The cells […] remaining in the upper chamber were wiped out and the number of cells migrated to the lower compartment was microscopically counted.

The subject of series [7] is human fibroblast (NIH3T3). In words: Cell adhesion test on human βig-h3 coated plate (hsdhFas-1). The conditions noted are these: human βig-h3 5 ug/ml coat, FIG. 3. Type of series: cell-based. As for the experimental part:
as §1, with “Human βig-h3” for “βig-h3”, “fibroblast (NIH3T3)” for “fibroblast-like synovicyte (FLS)”, “hsdhFas-1 peptide” for “HsFJ24, HsFJ25 or HsFJ27”

Substitutions are numbered along the chain they refer to. “Also recorded” adds a separate entry of the source.

B1: HsFJ24: fusion peptide having sequential links of hsdhFas-1, MMP1 substrate GPQGIAG (SEQ ID NO: 6), and QERGDSLA (SEQ ID NO: 10) (protein)
chain: RALPPRERSRLLGDAKELANILKYHIGDEILVSGGIGALVRLKSLQGDKLEVSLKNNVVSVNKEPVAEPDIMEFGPQGIAGVDGQERGDSLAGLE
modifications: hsFJ24
Turning to B1, the “βig-h3-mediated adhesion of FLS” value in series [1] is on record as “concentration-dependently inhibited”.

B2: HsFJ25: fusion peptide having sequential links of hsdhFas-1, MMP consensus substrate GPLGIAG (SEQ ID NO: 7), and QERGDSLA (SEQ ID NO: 10) (protein)
chain: B1 chain with Q77L
modifications: hsFj25
Regarding B2, the “βig-h3-mediated adhesion of FLS” value in [1] is given as “concentration-dependently inhibited”.

B3: MFK12: a peptide having mdhFas-1 (as a basic structure) linked to an RGDSP (SEQ ID NO: 9) peptide (protein)
chain: QAMPPEELNKLLANAKELTNILKYHIGDEILVSGGIGALVRLKSLQGDKLEVSSKNNVVSVNKEPVAETDIMEFGGRGDSPDDDDDLE
modifications: MFK12
As to B3, the “expression levels of ICAM-1 and RANKL vs arthritis control group” value in the series on ICAM-1 and RANKL is listed as “reduced levels”. In addition, in series [2] (10 mg/kg), the “proliferation of Synovial membrane tissue cells” value is on record as “hyper-proliferated”; the “state of the articulation region” value is “the articulation region was destroyed”; the “vascularization induction and cell adhesion protein expression (CD31, ICAM-1)” value is reported as “increased as much as that in the control group”. In [2] (30 mg/kg), the “proliferation of Synovial membrane tissue cells” value is “inhibited compared to that in the control group”; the “shape of the foot tissue” value is recorded as “nearly normal”; the “vascularization induction and adhesion protein expression (CD31, ICAM-1)” value is recorded as “reduced”. For the same molecule, the “arthritis inhibition (clinical arthritis index)” value in series [3] (10 mg/kg daily) is reported as “about 27%”. Moreover, the “arthritis inhibition (clinical arthritis index)” value in [3] (30 mg/kg daily) is “about 60%”. In [3] (daily into the abdominal cavity), the “arthritis inhibiting effect (clinical arthritis index), in words” value is “concentration-dependently inhibited”. In addition, the βig-h3-mediated cell adhesion entry in series [4] is “inhibited the adhesion and migration of a cell even at a lower concentration than that in Comparative Example 1; also recorded: concentration-dependently inhibited”. Further, in series [5], the “body weight change compared to control group” value is recorded as “abnormal findings in the weight change were not observed”. For the same molecule, the “expression levels of TNF-a, IL-6, IL-1β, ICAM-1, and RANKL vs arthritis control group” value in series [6] is “reduced levels”. The βig-h3-mediated cell migration result in the series with NIH3T3 is “inhibited the adhesion and migration of a cell even at a lower concentration than that in Comparative Example 1; also recorded: concentration-dependently inhibited”.

B4: hsdhFas-1: peptide prepared by removing H1 and H2 regions from the fourth fas-1 domain of human βig-h3 (protein)
chain: RALPPRERSRLLGDAKELANILKYHIGDEILVSGGIGALVRLKSLQGDKLEVSLKNNVVSVNKEPVAEPDIM
modifications: hsdhFas-1
notes: peptide prepared by removing H1 and H2 regions from the fourth fas-1 domain of human βig-h3
As for B4, the βig-h3-mediated adhesion result in series [7] is “concentration-dependently inhibited”. Further, in the series with NIH3T3, the βig-h3-mediated cell migration entry is recorded as “concentration-dependently inhibited”.

B5: HsFJ27: fusion peptide having sequential links of hsdhFas-1, MMP3 substrate GPLGLWARG (SEQ ID NO: 8), and QERGDSLA (SEQ ID NO: 10) (protein)
chain: MALFVRLLALALALALGPAATLARSFRALPPRERSRLLGDAKELANILKYHIGDEILVSGGIGALVRLKSLQGDKLEVSLKNNVVSVNKEPVAEPDIMEFGPLGLWARGVDQERGDSLAGLE
modifications: hsFJ27
On to B5, for which, in [1], the “βig-h3-mediated adhesion of FLS” value is on record as “concentration-dependently inhibited”.
